The results in this text go back to paper PMC5770380.

This assay addresses chromatin fibers containing chemically produced H3K9me3 (histone octamers on 12 x 601 array DNA, DA1 or DA2 labelled) (human).

With “Heterochromatin protein 1α (HP1α, CBX5) (from UniProt P45973 1-191) (natural protein)”, the time constant of the increase of compaction (FRET, DA2) after injection of 1 μM HP1α into flow cells with H3K9me3-modified chromatin fibers was 1.1 s.
